Experimental data from publication doi:10.1101/2024.04.26.591406.
Where “and” joins values, the source holds several entries; their conditions need not be identical. Equal values may be shown once.

Target: Vibrio His-FliFG fusion protein (FliF-FliG fusion) with the FliG-G214S mutation (Vibrio alginolyticus)
Experiment: cryo-EM structure

For “Vibrio His-FliFG fusion protein (FliF-FliG fusion) with the FliG-G214S mutation”, the stoichiometry N was 35 subunits and 34 subunits.
